B1: Fab VH1-46_IGHD6-6*01_IGHJ1*01 S102A/S103P/S104F/H111F (APFF) & L6_IGKJ1*01 (Fab, V domains shown)
VH: QVQLVQSGAEVKKPGASVKVSCKASGYTFTSYYMHWVRQAPGQGLEWMGIINPSGGSTSYAQKFQGRVTMTRDTSTSTVYMELSSLRSEDTAVYYCAREEYAPFSAEYFQFWGQGTLVTVSS
VL: not shown
notes: Fab made in E. coli; The constant parts (CH1 with His6 and Flag tags from plasmid A, kappa CL from plasmid C) are not added here; also called H:APFF & L:wt; APFF & parent
B2: Fab VH1-46_IGHD6-6*01_IGHJ1*01 S102A/S103P/S104F/H111F (APFF) & L6_IGKJ1*01 S31A (Fab, V domains shown)
VH: QVQLVQSGAEVKKPGASVKVSCKASGYTFTSYYMHWVRQAPGQGLEWMGIINPSGGSTSYAQKFQGRVTMTRDTSTSTVYMELSSLRSEDTAVYYCAREEYAPFSAEYFQFWGQGTLVTVSS
VL: EIVLTQSPATLSLSPGERATLSCRASQSVSAYLAWYQQKPGQAPRLLIYDASNRATGIPARFSGSGSGTDFTLTISSLEPEDFAVYYCQQRSNWPPWTFGQGTKVEIKR
notes: Fab made in E. coli; The constant parts (CH1 with His6 and Flag tags from plasmid A, kappa CL from plasmid C) are not added here; also called APFF & S31A
B3: Fab VH1-46_IGHD6-6*01_IGHJ1*01 S102A/S103P/S104F/H111F (APFF) & L6_IGKJ1*01 S31H (Fab, V domains shown)
VH: QVQLVQSGAEVKKPGASVKVSCKASGYTFTSYYMHWVRQAPGQGLEWMGIINPSGGSTSYAQKFQGRVTMTRDTSTSTVYMELSSLRSEDTAVYYCAREEYAPFSAEYFQFWGQGTLVTVSS
VL: EIVLTQSPATLSLSPGERATLSCRASQSVSHYLAWYQQKPGQAPRLLIYDASNRATGIPARFSGSGSGTDFTLTISSLEPEDFAVYYCQQRSNWPPWTFGQGTKVEIKR
notes: Fab made in E. coli; The constant parts (CH1 with His6 and Flag tags from plasmid A, kappa CL from plasmid C) are not added here; also called APFF & S31H
B4: Fab VH1-46_IGHD6-6*01_IGHJ1*01 S102A/S103P/S104F/H111F (APFF) & L6_IGKJ1*01 S31D (Fab, V domains shown)
VH: QVQLVQSGAEVKKPGASVKVSCKASGYTFTSYYMHWVRQAPGQGLEWMGIINPSGGSTSYAQKFQGRVTMTRDTSTSTVYMELSSLRSEDTAVYYCAREEYAPFSAEYFQFWGQGTLVTVSS
VL: EIVLTQSPATLSLSPGERATLSCRASQSVSDYLAWYQQKPGQAPRLLIYDASNRATGIPARFSGSGSGTDFTLTISSLEPEDFAVYYCQQRSNWPPWTFGQGTKVEIKR
notes: Fab made in E. coli; The constant parts (CH1 with His6 and Flag tags from plasmid A, kappa CL from plasmid C) are not added here; also called APFF & S31D
B5: Fab VH1-46_IGHD6-6*01_IGHJ1*01 S102A/S103P/S104F/H111F (APFF) & L6_IGKJ1*01 S30G (Fab, V domains shown)
VH: QVQLVQSGAEVKKPGASVKVSCKASGYTFTSYYMHWVRQAPGQGLEWMGIINPSGGSTSYAQKFQGRVTMTRDTSTSTVYMELSSLRSEDTAVYYCAREEYAPFSAEYFQFWGQGTLVTVSS
VL: EIVLTQSPATLSLSPGERATLSCRASQSVGSYLAWYQQKPGQAPRLLIYDASNRATGIPARFSGSGSGTDFTLTISSLEPEDFAVYYCQQRSNWPPWTFGQGTKVEIKR
notes: Fab made in E. coli; The constant parts (CH1 with His6 and Flag tags from plasmid A, kappa CL from plasmid C) are not added here; also called APFF & S30G
B6: Fab VH1-46_IGHD6-6*01_IGHJ1*01 S102A/S103P/S104F/H111F (APFF) & L6_IGKJ1*01 S31I (Fab, V domains shown)
VH: QVQLVQSGAEVKKPGASVKVSCKASGYTFTSYYMHWVRQAPGQGLEWMGIINPSGGSTSYAQKFQGRVTMTRDTSTSTVYMELSSLRSEDTAVYYCAREEYAPFSAEYFQFWGQGTLVTVSS
VL: EIVLTQSPATLSLSPGERATLSCRASQSVSIYLAWYQQKPGQAPRLLIYDASNRATGIPARFSGSGSGTDFTLTISSLEPEDFAVYYCQQRSNWPPWTFGQGTKVEIKR
notes: Fab made in E. coli; The constant parts (CH1 with His6 and Flag tags from plasmid A, kappa CL from plasmid C) are not added here; also called APFF & S31I
B7: Fab VH1-46_IGHD6-6*01_IGHJ1*01 S102A/S103P/S104F/H111F (APFF) & L6_IGKJ1*01 S30T (Fab, V domains shown)
VH: QVQLVQSGAEVKKPGASVKVSCKASGYTFTSYYMHWVRQAPGQGLEWMGIINPSGGSTSYAQKFQGRVTMTRDTSTSTVYMELSSLRSEDTAVYYCAREEYAPFSAEYFQFWGQGTLVTVSS
VL: EIVLTQSPATLSLSPGERATLSCRASQSVTSYLAWYQQKPGQAPRLLIYDASNRATGIPARFSGSGSGTDFTLTISSLEPEDFAVYYCQQRSNWPPWTFGQGTKVEIKR
notes: Fab made in E. coli; The constant parts (CH1 with His6 and Flag tags from plasmid A, kappa CL from plasmid C) are not added here; also called APFF & S30T
B8: Fab VH1-46_IGHD6-6*01_IGHJ1*01 S102A/S103P/S104F/H111F (APFF) & L6_IGKJ1*01 S31N (Fab, V domains shown)
VH: QVQLVQSGAEVKKPGASVKVSCKASGYTFTSYYMHWVRQAPGQGLEWMGIINPSGGSTSYAQKFQGRVTMTRDTSTSTVYMELSSLRSEDTAVYYCAREEYAPFSAEYFQFWGQGTLVTVSS
VL: EIVLTQSPATLSLSPGERATLSCRASQSVSNYLAWYQQKPGQAPRLLIYDASNRATGIPARFSGSGSGTDFTLTISSLEPEDFAVYYCQQRSNWPPWTFGQGTKVEIKR
notes: Fab made in E. coli; The constant parts (CH1 with His6 and Flag tags from plasmid A, kappa CL from plasmid C) are not added here; also called APFF & S31N
B9: Fab VH1-46_IGHD6-6*01_IGHJ1*01 S102A/S103P/S104F/H111F (APFF) & L6_IGKJ1*01 S30R (Fab, V domains shown)
VH: QVQLVQSGAEVKKPGASVKVSCKASGYTFTSYYMHWVRQAPGQGLEWMGIINPSGGSTSYAQKFQGRVTMTRDTSTSTVYMELSSLRSEDTAVYYCAREEYAPFSAEYFQFWGQGTLVTVSS
VL: EIVLTQSPATLSLSPGERATLSCRASQSVRSYLAWYQQKPGQAPRLLIYDASNRATGIPARFSGSGSGTDFTLTISSLEPEDFAVYYCQQRSNWPPWTFGQGTKVEIKR
notes: Fab made in E. coli; The constant parts (CH1 with His6 and Flag tags from plasmid A, kappa CL from plasmid C) are not added here; also called APFF & S30R
B10: Fab VH1-46_IGHD6-6*01_IGHJ1*01 S102A/S103P/S104F/H111F (APFF) & L6_IGKJ1*01 S31P (Fab, V domains shown)
VH: QVQLVQSGAEVKKPGASVKVSCKASGYTFTSYYMHWVRQAPGQGLEWMGIINPSGGSTSYAQKFQGRVTMTRDTSTSTVYMELSSLRSEDTAVYYCAREEYAPFSAEYFQFWGQGTLVTVSS
VL: EIVLTQSPATLSLSPGERATLSCRASQSVSPYLAWYQQKPGQAPRLLIYDASNRATGIPARFSGSGSGTDFTLTISSLEPEDFAVYYCQQRSNWPPWTFGQGTKVEIKR
notes: Fab made in E. coli; The constant parts (CH1 with His6 and Flag tags from plasmid A, kappa CL from plasmid C) are not added here; also called APFF & S31P

This assay addresses T1, Recombinant Human DLL4 (delta-like protein 4) (human, UniProt Q9NR61 27-524).
T1 construct: Bought recombinant human DLL4 (R&D Systems Cat#1506-D4/CF); also called rHuman DLL4
As to the kind of experiment: ECL (MSD) multispot binding assay, antigen spotted on plate, Fab in solution.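 Further: purified Fab incubated 1 h at 20 °C, detected via TAG-labelled antibody electrochemiluminescence, antigen spot compared with the blank in the same well, ratio at least 4 counted as hit.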
As for B1, the Signal/Blank came to 389.

Consider B2, for which the Signal/Blank was 882.

As for B3, the Signal/Blank was found to be 838. Regarding B4, the Signal/Blank turned out to be 313.

With B5, the “ECL signal” value amounted to 178000 and the Signal/Blank was determined as 506. For the molecule B6, the Signal/Blank was determined as 541. On to B7, for which the “ECL signal” value worked out at 136000 and the Signal/Blank came to 348. On to B8, for which the “ECL signal” value is 178000 and the Signal/Blank worked out at 605. Consider B9, for which the “ECL signal” value was 189000 and the Signal/Blank stood at 682. Consider B10, for which the Signal/Blank was 156.
